This passage reports Kd results from PMC10080908.

The target of the assay is RNF111 RING (Homo sapiens), Q6ZNA4.
Sequence of RNF111 RING (Homo sapiens), Q6ZNA4 (Q6ZNA4 939-986): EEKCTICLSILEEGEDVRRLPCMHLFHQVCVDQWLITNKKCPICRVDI

B1: UBXN7 UAS, O94888 (protein)
chain: IDKKLTTLADLFRPPIDLMHKGSFETAKECGQMQNKWLMINIQNVQDFACQCLNRDVWSNEAVKNIIREHFIFWQVYHDSEEGQRYIQFYKLGDFPYVSILDPRTGQKLVEWHQLDVSSFLDQVTGFLGE
In the case of B1, the Kd came out at 1000 nM.

The Kd is the constant that tells how readily two partners part at equilibrium.
